From patent US20180320179A1, “LANOSTEROL 14-ALPHA DEMETHYLASE (CYP51) NUCLEIC ACID MOLECULES THAT CONTROL PATHOGENS” (Dow AgroSciences LLC, priority 2017, published 2018)

B1: MgCyp51-T6: dsRNA tile of Zymoseptoria tritici Cyp51, 280 bp, location 881-1160 (nucleic acid, listed as Zymoseptoria tritici)
chain: ATGCCATTCCCGACAAGGAGATTGCTCATATGATGATTGCGCTGCTCATGGCCGGCCAGCACTCTTCATCTGCGACCGAGTCCTGGATCACTCTCCGCCTCGCATCCCGCCCCGACATCCAAGACGAACTCCTCCAAGAACAAAAGGATATGCTCGGTGTGAACGCCGACGGCAGTATCAAGGAGCTCACATACGCCAACCTCTCGAAACTCACCCTCCTCAATCAAGTCGTCAAAGAAACCCTTCGTATTCACGCTCCAATCCACTCCATTCTGCGCAA
B2: MgCyp51-T5: dsRNA tile of Zymoseptoria tritici Cyp51, 133 bp, location 1316-1448 (nucleic acid, listed as Zymoseptoria tritici)
chain: AATACAAGCACCTGTCCCCGACGACTGCCCTAGGAAGCATCGCCGAGGAGAAAGAAGACTATGGCTACGGCCTGGTAAGCAAGGGCGCGGCGTCGCCATACTTACCCTTTGGTGCGGGACGACACAGATGTAT
B3: MgCyp51-T8: dsRNA tile of Zymoseptoria tritici Cyp51, 242 bp, location 1151-1392 (nucleic acid, listed as Zymoseptoria tritici)
chain: TTCTGCGCAAGGTCAAGTCTCCCATGCCCATCGAAGGTACGGCATACGTCATTCCAACCACCCACACTCTTCTGGCCGCTCCGGGCACAACGAGCCGCATGGACGAGCACTTTCCCGACTGCCTCCATTGGGAGCCGCATCGATGGGACGAGAGCCCGTCCGAGAAATACAAGCACCTGTCCCCGACGACTGCCCTAGGAAGCATCGCCGAGGAGAAAGAAGACTATGGCTACGGCCTGGTA
B4: YFP: non-target dsRNA control (YFP, yellow fluorescent protein coding region) (nucleic acid)
chain: TGTAGAAATCCTTCAGCTCGGGGCCGTACTTGGCGAAGCACTGGGCGCCGTAGGTCAGGGTGGTCACCAGGGTGCTCCAGGGCACGGGCACATCGCCGGTGGTGCAGATGAACTGGGCATCCACCTTGCCCACGCTGGCATCGCCGTAGCCCTTGCCGCGGATGCTGAAGGTGTGGCCATCCACATTGCCCTCCATCTCCACCACGTAGGGGATCTTGCCGTGGAACAGCAGGGCGCCGCTGGAGCCCAT
modifications: double-stranded RNA; synthesized partial coding region

These molecules were tested on Zymoseptoria tritici (SEPTTR US-184) (assay: Cyp51 dsRNA foliar application bioassay on wheat seedlings, isolate US-184 (Example 5)). Details: compared to the non-treated control; isolate not given.
Assay type: in vivo
Procedure: RNAi (dsRNA) fungicidal solutions were prepared in TE buffer (pH 8.0), which were then mixed with 9 volumes of phosphate buffer (pH 7.5) containing an adjuvant. The fungicidal solutions were applied to wheat seedlings using an automated booth sprayer to run-off. All sprayed plants were allowed to air dry prior to further handling.
The following served as controls: adjuvant in phosphate buffer control, disease pressure control (untreated), and clean plant control (negative control).
(§1) These plants were inoculated with an aqueous spore suspension of Zymoseptoria tritici either prior to or after fungicidal treatments. After inoculation the plants were kept in 100% relative humidity to allow spores to germinate and infect the leaves. The plants were then transferred to a greenhouse set at 20° C. until disease developed.

| Molecule | control of Septoria leaf blotch on wheat seedlings |
| --- | --- |
| B1 | control Septoria leaf blotch |
| B2 | control Septoria leaf blotch |
| B3 | control Septoria leaf blotch |

Each molecule was assayed on Zymoseptoria tritici (SEPTTR-184) (assay: Cyp51 dsRNA tile (fragment) foliar application bioassay (Example 6)). Details: 1 day protectant; calculated from disease control.
Assay type: in vivo
Procedure: The 200 ppm concentration for each treatment was prepared by adding the calculated volume of the corresponding dsRNA solution in TE buffer. […] A non-target dsRNA control (YFP), a TE/phosphate buffer control, disease pressure control, and clean plant control were included.
as §1

| Molecule | ED50 (ppm) SEPTTR-184 1DP [ppm] | ED80 (ppm) SEPTTR-184 1DP [ppm] |
| --- | --- | --- |
| B4 | >200 | >200 |
| B1 | 3.125 | >200 |
| B2 | <3.125 | >200 |
| B3 | 5.208 | >200 |

Same assay, conditions: 1 day protectant; rate 3.125 ppm; average of 2 trials

| Molecule | Disease Control (%) SEPTTR-184 1DP [%] |
| --- | --- |
| B4 | 0 |
| B1 | 50 |
| B2 | 61 |
| B3 | 46 |

Same assay, conditions: 1 day protectant; rate 12.5 ppm; average of 2 trials

| Molecule | Disease Control (%) SEPTTR-184 1DP [%] |
| --- | --- |
| B4 | 15 |
| B1 | 55 |
| B2 | 66 |
| B3 | 64 |

Same assay, conditions: 1 day protectant; rate 50 ppm; average of 2 trials

| Molecule | Disease Control (%) SEPTTR-184 1DP [%] |
| --- | --- |
| B4 | 23 |
| B1 | 71 |
| B2 | 70 |
| B3 | 65 |

Same assay, conditions: 1 day protectant; rate 200 ppm; average of 2 trials

| Molecule | Disease Control (%) SEPTTR-184 1DP [%] |
| --- | --- |
| B4 | 27 |
| B1 | 74 |
| B2 | 77 |
| B3 | 74 |

Same assay, conditions: 3 days curative; calculated from disease control

| Molecule | ED50 (ppm) SEPTTR-184 3DC [ppm] | ED80 (ppm) SEPTTR-184 3DC [ppm] |
| --- | --- | --- |
| B4 | >200 | >200 |
| B1 | 29.167 | >200 |
| B2 | <3.125 | >200 |
| B3 | <3.125 | >200 |

Same assay, conditions: 3 days curative; rate 3.125 ppm; average of 2 trials

| Molecule | Disease Control (%) SEPTTR-184 3DC [%] |
| --- | --- |
| B4 | 15 |
| B1 | 48 |
| B2 | 52 |
| B3 | 61 |

Same assay, conditions: 3 days curative; rate 12.5 ppm; average of 2 trials

| Molecule | Disease Control (%) SEPTTR-184 3DC [%] |
| --- | --- |
| B4 | 19 |
| B1 | 46 |
| B2 | 64 |
| B3 | 68 |

Same assay, conditions: 3 days curative; rate 50 ppm; average of 2 trials

| Molecule | Disease Control (%) SEPTTR-184 3DC [%] |
| --- | --- |
| B4 | 19 |
| B1 | 55 |
| B2 | 68 |
| B3 | 73 |

Same assay, conditions: 3 days curative; rate 200 ppm; average of 2 trials

| Molecule | Disease Control (%) SEPTTR-184 3DC [%] |
| --- | --- |
| B4 | 35 |
| B1 | 61 |
| B2 | 78 |
| B3 | 73 |
